The target in assay [1] is PorZ from P. gingivalis (P. gingivalis W83). The assay can be described thus: other fluorescence titration; microscale fluorescence (initial fluorescence, Monolith NT.115): 20 nM NT-647-labelled PorZ titrated with PorU (3 nM to 100 μM) in PBS, 25°C, without A-LPS; 1:1 binding model.
For assay [2] the target is unchanged. Briefly: other fluorescence titration; microscale fluorescence (initial fluorescence, Monolith NT.115): 20 nM NT-647-labelled PorZ with 1 × 10^5 EU/ml A-LPS from W83, titrated with PorU (3 nM to 100 μM) in PBS, 25°C; 1:1 binding model.

B1: PorU sortase from P. gingivalis, hexahistidine-tagged (enzyme)
chain: QRAMGKTADRSLMASGHWVKIRVDASGVYRLTDEQLRANGFSDPSKVGVFGYGGGVLPEDLSRITTDDLPPVPVLRQGNALYFYAVGPVTWFYNPAKTTMEHTVNTYSTHGYYFLSDAAGAPLQMSQYTGGGASAEALIDYYDELMLHEQELYSPKESGRDLYGESFSAVNTRTVKFPLRGNTRSSGELGTVFSYIAKARSAGGGREMSLSANGILIFSDPFSMTSNEVSNSYLAGKKRRLYRSTPMNSLVNELRLDANYSMTGDAVNLDFIEVATQNDLRYDGAPMHIRRFSNLPVLGGESCRFVISEVPESLVVLQANSSLTASLVPVKTVGDKTIEFVAPPKGQDRRTINTFYAVDLSQASAPEILGAVPNQNLHGEEIPDLIIVSTQALLPEADRLATYRREKNGLKVLVVLQEQVFNEFSGGTPDATAYRLFAKMFYDRWKANAPVGETFPMQMLLFGDGAHDNRKVSVAWQKPYLQQTEFLLTFQAVNSTNVNSYVTDDYFGLLDDQPASVNIGWRNYNMAVGRFPVRTPAEARIAVDKTIRYEEDRESGAWRIRACFAADNGDKHATETSRLIDTVKRYAPAIMPVRAFQDVYPHVIENGLHSIPGAKKKMLETLQSGIILLNYAGHGGPAGWSDEHLLTLNDIHNFNYKHMPIWITATCDFANYDSQTTSAGEEVFLHEKSGTPIMFSTTRVVYNTQNEKINGFMLRRMFEKAKDGRYRTMGEIIRSAKQGMLSTVFPDSINQLSFFLMGDPSVRMNLPTHKVQLTAINGQDPEGQYGTIMLKSLERVALKGKVTDEKGTFDETFSGKVFLTVFDGRKKMTALEEEGNDLSLVYYDYPNVMYAGIAEVKDGLFETSFIVPKDVNYSEHEGRINLYAYNESTKAEAMGVDFSIRVQPGIPDEVTEDNTPPEIISCFLNDSTFRSGDEVNPTPLFMAEVFDLNGINITGSGVGHDITLCIDGRADLTYNLNAYFTSSATDAGVGTILFMIPALAEGDHTARLTVWDIFNNAVHHDFSFRVVDGIAPDVADVILFPNPVRESATFRIFHNRPGSDLNVVVEIYDFTGRLVNSLPVKTYSSSYGEPIEIKWDLTSKYGVKIGNGFYLYRCVVNSPGGQTASMAKKMIVVAQ
Consider B1, for which the Kd was found to be 3.4 µM in assay [1] and 700 nM in assay [2].

The term Kd denotes the free concentration of one partner at which half of the binding sites on the other are occupied at equilibrium, for simple one-to-one binding. A high value points to lower affinity.

For the origin of these results see article PMC8545088.
